The source of these data is publication PMC12295664.

For assay [1], the target named is AEDANS–S1 (myosin subfragment-1 labeled with 1,5-IAEDANS at Cys707). The assay is described as follows: polarized fluorescence of AEDANS-S1 in ghost fibers. The note with it: read off a plot.
Assay [2] deals with F-actin of rabbit psoas ghost muscle fibers (rabbit (endogenous in psoas muscle fibers)) (UniProt P68135). Nature of the assay: reconstitution of ghost muscle fibers, washing, SDS-PAGE densitometry; single rabbit psoas ghost fibers (F-actin held in the fiber) incubated with troponin, tropomyosin and S1 at 1.0–2.5 mg/mL in 50 mM KCl, 3 mM MgCl2, 1 mM DTT, 6.7 mM K,Na–phosphate pH 7.0; unbound protein washed off; 5–10 fibers on SDS-PAGE, bands quantified with calibration curves; average molar ratios to actin.

Where [3] appears, read: S1 (no nucleotide), Actin + Tpm + Tn, - Ca2+, parent: est. 0.26.
The mark [4] stands for this setting: S1 + ADP, Actin + Tpm + Tn, + Ca2+, parent: est. 0.17.
Setting [5] is: S1 + ADP, Actin + Tpm + Tn, - Ca2+, parent: est. 0.27.
Where [6] appears, read: S1 + ATP, Actin + Tpm + Tn, - Ca2+, parent: est. 0.46.
The mark [7] stands for this setting: S1 + Tpm, no troponin, no nucleotide, parent: est. 0.16.
Where [8] appears, read: scale: mol actin per mol tropomyosin.
Where [9] appears, read: S1 (no nucleotide), Actin + Tpm + Tn, + Ca2+, parent: est. 0.16.
Setting [10] is: S1 (no nucleotide), Actin + Tpm + Tn, - Ca2+, parent: est. 0.14.
Setting [11] is: S1 + ADP, Actin + Tpm + Tn, + Ca2+, parent: est. 0.16.
Where [12] appears, read: S1 + ADP, Actin + Tpm + Tn, - Ca2+, parent: est. 0.18.
Setting [13] is: S1 + ATP, Actin + Tpm + Tn, + Ca2+, parent: est. 0.46.
Setting [14] is: S1 + ATP, Actin + Tpm + Tn, - Ca2+, parent: est. 0.36.

As a reminder, the stoichiometry N is a count of units in the complex or per binding partner.

troponin (rabbit skeletal muscle troponin complex), sequence (P02643 whole entry, looked up): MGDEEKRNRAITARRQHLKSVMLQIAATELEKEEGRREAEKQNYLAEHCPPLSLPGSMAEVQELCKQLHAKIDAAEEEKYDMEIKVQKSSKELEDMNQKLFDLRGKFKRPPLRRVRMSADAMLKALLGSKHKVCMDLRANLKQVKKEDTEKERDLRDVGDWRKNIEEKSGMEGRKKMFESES
troponin (rabbit skeletal muscle troponin complex), sequence (P02586 whole entry, looked up): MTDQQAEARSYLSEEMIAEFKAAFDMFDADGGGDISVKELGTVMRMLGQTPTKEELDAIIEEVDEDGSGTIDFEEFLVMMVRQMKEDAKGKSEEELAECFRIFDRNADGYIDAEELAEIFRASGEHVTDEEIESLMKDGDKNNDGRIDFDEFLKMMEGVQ
wild-type α-tropomyosin (Tpm1.1) with N-terminal Met–Ala–Ser extension (natural protein), sequence (P04692 whole entry): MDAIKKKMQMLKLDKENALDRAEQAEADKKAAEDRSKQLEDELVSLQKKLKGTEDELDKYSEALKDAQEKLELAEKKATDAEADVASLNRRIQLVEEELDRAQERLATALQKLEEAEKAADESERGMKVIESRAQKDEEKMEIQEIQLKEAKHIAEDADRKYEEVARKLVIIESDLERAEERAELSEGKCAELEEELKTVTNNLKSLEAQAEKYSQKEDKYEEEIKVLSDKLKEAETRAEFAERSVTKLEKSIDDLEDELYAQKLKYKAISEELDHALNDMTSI
wild-type γ-tropomyosin (Tpm3.12, human TPM3) with N-terminal Met–Ala–Ser extension (natural protein), sequence (Q5KR47 whole entry): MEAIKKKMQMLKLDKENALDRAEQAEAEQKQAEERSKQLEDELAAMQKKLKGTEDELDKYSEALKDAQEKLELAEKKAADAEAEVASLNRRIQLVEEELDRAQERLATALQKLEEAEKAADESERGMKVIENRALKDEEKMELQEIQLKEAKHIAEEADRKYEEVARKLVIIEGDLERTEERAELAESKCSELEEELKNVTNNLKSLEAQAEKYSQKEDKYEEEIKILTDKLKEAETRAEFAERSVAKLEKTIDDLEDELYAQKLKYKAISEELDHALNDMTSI
wild-type β-tropomyosin (human TPM2) with N-terminal Met–Ala–Ser extension (natural protein), sequence (P07951 whole entry): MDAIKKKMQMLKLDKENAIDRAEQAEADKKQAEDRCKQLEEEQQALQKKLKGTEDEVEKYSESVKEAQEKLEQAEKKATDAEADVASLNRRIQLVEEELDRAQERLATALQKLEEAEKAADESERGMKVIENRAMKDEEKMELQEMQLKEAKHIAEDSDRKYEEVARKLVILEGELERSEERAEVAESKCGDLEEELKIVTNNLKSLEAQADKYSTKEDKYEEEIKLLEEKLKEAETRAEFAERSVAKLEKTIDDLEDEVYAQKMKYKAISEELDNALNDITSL
myosin subfragment-1 (S1), lacking regulatory light chains (domain or fragment), sequence (Q28641 whole entry, the tested form may be a part): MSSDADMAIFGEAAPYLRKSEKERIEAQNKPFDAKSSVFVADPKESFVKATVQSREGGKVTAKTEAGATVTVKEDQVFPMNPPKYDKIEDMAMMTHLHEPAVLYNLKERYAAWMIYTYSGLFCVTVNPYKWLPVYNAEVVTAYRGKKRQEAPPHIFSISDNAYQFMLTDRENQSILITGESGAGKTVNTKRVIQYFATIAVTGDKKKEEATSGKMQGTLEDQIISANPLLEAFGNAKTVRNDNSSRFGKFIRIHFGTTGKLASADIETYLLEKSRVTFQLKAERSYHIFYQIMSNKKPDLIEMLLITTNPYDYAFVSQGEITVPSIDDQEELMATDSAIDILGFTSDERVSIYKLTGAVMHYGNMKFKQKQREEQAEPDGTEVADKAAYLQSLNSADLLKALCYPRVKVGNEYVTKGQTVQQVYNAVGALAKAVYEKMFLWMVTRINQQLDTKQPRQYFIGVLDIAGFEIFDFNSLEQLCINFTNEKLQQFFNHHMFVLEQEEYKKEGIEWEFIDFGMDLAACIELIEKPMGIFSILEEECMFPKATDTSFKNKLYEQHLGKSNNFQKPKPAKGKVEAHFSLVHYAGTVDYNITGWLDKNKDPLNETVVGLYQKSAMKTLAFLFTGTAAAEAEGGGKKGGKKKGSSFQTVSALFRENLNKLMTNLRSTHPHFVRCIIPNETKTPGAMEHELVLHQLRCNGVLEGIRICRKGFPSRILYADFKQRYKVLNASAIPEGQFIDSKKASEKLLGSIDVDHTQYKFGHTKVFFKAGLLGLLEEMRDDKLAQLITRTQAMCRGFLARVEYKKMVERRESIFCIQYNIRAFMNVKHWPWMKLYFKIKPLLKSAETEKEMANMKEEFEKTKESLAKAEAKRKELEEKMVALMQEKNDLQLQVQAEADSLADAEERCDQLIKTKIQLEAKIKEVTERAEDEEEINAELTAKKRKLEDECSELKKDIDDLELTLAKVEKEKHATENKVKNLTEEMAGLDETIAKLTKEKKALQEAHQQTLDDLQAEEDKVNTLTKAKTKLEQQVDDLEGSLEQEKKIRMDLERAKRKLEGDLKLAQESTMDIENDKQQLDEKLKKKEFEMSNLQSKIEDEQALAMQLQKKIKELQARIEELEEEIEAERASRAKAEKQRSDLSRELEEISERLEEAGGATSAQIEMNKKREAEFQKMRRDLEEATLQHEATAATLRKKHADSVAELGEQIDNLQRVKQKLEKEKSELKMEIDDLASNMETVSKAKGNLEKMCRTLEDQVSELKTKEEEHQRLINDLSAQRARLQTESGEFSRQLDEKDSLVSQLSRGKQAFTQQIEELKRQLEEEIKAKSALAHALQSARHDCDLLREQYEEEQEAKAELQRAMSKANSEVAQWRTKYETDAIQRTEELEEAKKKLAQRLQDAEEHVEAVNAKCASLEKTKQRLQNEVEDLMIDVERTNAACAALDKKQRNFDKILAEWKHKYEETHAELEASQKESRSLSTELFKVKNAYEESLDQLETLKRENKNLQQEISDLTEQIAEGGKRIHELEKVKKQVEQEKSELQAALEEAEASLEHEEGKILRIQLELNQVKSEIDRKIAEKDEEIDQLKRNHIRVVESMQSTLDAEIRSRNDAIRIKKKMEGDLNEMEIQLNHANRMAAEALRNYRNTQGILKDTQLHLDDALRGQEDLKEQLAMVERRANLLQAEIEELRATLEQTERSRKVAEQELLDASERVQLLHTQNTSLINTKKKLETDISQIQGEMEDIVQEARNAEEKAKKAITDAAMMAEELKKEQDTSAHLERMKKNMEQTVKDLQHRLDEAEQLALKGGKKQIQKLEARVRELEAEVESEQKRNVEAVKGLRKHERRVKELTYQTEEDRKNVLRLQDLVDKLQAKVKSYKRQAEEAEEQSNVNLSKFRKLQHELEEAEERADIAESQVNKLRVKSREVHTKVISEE

For “wild-type β-tropomyosin (human TPM2) with N-terminal Met–Ala–Ser extension R91G”, the other: N (relative number of disordered fluorophores) in assay [1] (S1 (no nucleotide), Actin + Tpm + Tn, + Ca2+, parent: est. 0.27) amounted to 0.26 rel. units; in assay [1] (S1 (no nucleotide), Actin + Tpm + Tn, - Ca2+, parent: est. 0.29), 0.28 rel. units; in assay [1] (S1 + ADP, Actin + Tpm + Tn, + Ca2+, parent: est. 0.30) it was 0.28 rel. units; in assay [1] (S1 + ADP, Actin + Tpm + Tn, - Ca2+, parent: est. 0.32) it was 0.27 rel. units; in assay [1] (S1 + ATP, Actin + Tpm + Tn, + Ca2+, parent: est. 0.45), 0.61 rel. units; in assay [1] (S1 + ATP, Actin + Tpm + Tn, - Ca2+, parent: est. 0.60), 0.38 rel. units. Also, the other: N (relative number of disordered fluorophores) in assay [1] (S1 + Tpm, no troponin, no nucleotide, parent: est. 0.28) amounted to 0.27 rel. units.
Take “wild-type γ-tropomyosin (Tpm3.12, human TPM3) with N-terminal Met–Ala–Ser extension R90P”: the other: N (relative number of disordered fluorophores) was 0.2 rel. units in assay [1] (S1 (no nucleotide), Actin + Tpm + Tn, + Ca2+, parent: est. 0.15); 0.17 rel. units in assay [1] (setting [3]); 0.17 rel. units in assay [1] (setting [4]); 0.16 rel. units in assay [1] (setting [5]); 0.095 rel. units in assay [1] (S1 + ATP, Actin + Tpm + Tn, + Ca2+, parent: est. 0.32); 0.1 rel. units in assay [1] (setting [6]). The other: N (relative number of disordered fluorophores) in assay [1] (setting [7]) came out at 0.15 rel. units.
For the substance “wild-type α-tropomyosin (Tpm1.1) with N-terminal Met–Ala–Ser extension (natural protein)”, the stoichiometry N in assay [2] (setting [8]) is 6.9.
Take “β-tropomyosin (human TPM2) R91G with N-terminal Met–Ala–Ser extension (natural protein)”: in assay [2] (setting [8]), the stoichiometry N is 6.9.
For “α-tropomyosin (rat TPM1) K168E with N-terminal Met–Ala–Ser extension (natural protein)”, the stoichiometry N in assay [2] (setting [8]) was 6.9.
On the same count and under the same terms, in the case of “γ-tropomyosin (Tpm3.12, human TPM3) E150A with N-terminal Met–Ala–Ser extension (natural protein)” it was 6.9.
For the substance “wild-type β-tropomyosin (human TPM2) with N-terminal Met–Ala–Ser extension E117K”, the other: N (relative number of disordered fluorophores) in assay [1] (S1 (no nucleotide), Actin + Tpm + Tn, + Ca2+, parent: est. 0.40) amounted to 0.38 rel. units; in assay [1] (S1 (no nucleotide), Actin + Tpm + Tn, - Ca2+, parent: est. 0.25), 0.28 rel. units; in assay [1] (S1 + ADP, Actin + Tpm + Tn, + Ca2+, parent: est. 0.39), 0.39 rel. units; in assay [1] (S1 + ADP, Actin + Tpm + Tn, - Ca2+, parent: est. 0.28) it was 0.33 rel. units; in assay [1] (S1 + ATP, Actin + Tpm + Tn, + Ca2+, parent: est. 0.68), 0.6 rel. units; in assay [1] (S1 + ATP, Actin + Tpm + Tn, - Ca2+, parent: est. 0.44) it was 0.53 rel. units. Besides, the other: N (relative number of disordered fluorophores) in assay [1] (S1 + Tpm, no troponin, no nucleotide, parent: est. 0.26) was 0.39 rel. units.
With “wild-type α-tropomyosin (Tpm1.1) with N-terminal Met–Ala–Ser extension R167H”, the other: N (relative number of disordered fluorophores) is 0.14 rel. units in assay [1] (setting [9]); 0.085 rel. units in assay [1] (setting [10]); 0.2 rel. units in assay [1] (setting [11]); 0.24 rel. units in assay [1] (setting [12]); 0.44 rel. units in assay [1] (setting [13]); 0.35 rel. units in assay [1] (setting [14]).
Take “γ-tropomyosin (Tpm3.12, human TPM3) E173A with N-terminal Met–Ala–Ser extension (natural protein)”: in assay [2] (setting [8]), the stoichiometry N is 6.9.
On the same count and under the same terms, then “wild-type γ-tropomyosin (Tpm3.12, human TPM3) with N-terminal Met–Ala–Ser extension (natural protein)”, with 6.9.
Consider “wild-type β-tropomyosin (human TPM2) with N-terminal Met–Ala–Ser extension (natural protein)”, for which the stoichiometry N in assay [2] (setting [8]) is 6.9.
On to “wild-type α-tropomyosin (Tpm1.1) with N-terminal Met–Ala–Ser extension K168E”, for which the other: N (relative number of disordered fluorophores) was 0.17 rel. units in assay [1] (setting [9]); 0.06 rel. units in assay [1] (setting [10]); 0.11 rel. units in assay [1] (setting [11]); 0.23 rel. units in assay [1] (setting [12]); 0.34 rel. units in assay [1] (setting [13]); 0.36 rel. units in assay [1] (setting [14]).
As for “myosin subfragment-1 (S1), lacking regulatory light chains (domain or fragment)”, the stoichiometry N in assay [2] (scale: mol actin per mol S1) is 4.1.
As to “γ-tropomyosin (Tpm3.12, human TPM3) R90P with N-terminal Met–Ala–Ser extension (natural protein)”, the stoichiometry N in assay [2] (setting [8]) was found to be 6.9.
The same measure, in the same setting: in the case of “β-tropomyosin (human TPM2) E117K with N-terminal Met–Ala–Ser extension (natural protein)” it was 6.9; in that of “α-tropomyosin (rat TPM1) R167H with N-terminal Met–Ala–Ser extension (natural protein)”, 6.9; in that of “β-tropomyosin (human TPM2) Q147P with N-terminal Met–Ala–Ser extension (natural protein)”, 6.9.
In the case of “troponin (rabbit skeletal muscle troponin complex) (from UniProt P02586 1-160; P02643 1-182)”, in assay [2] (scale: mol actin per mol troponin), the stoichiometry N stood at 7.5.
For “wild-type γ-tropomyosin (Tpm3.12, human TPM3) with N-terminal Met–Ala–Ser extension E173A”, the other: N (relative number of disordered fluorophores) in assay [1] (S1 (no nucleotide), Actin + Tpm + Tn, + Ca2+, parent: est. 0.17) is 0.1 rel. units; in assay [1] (setting [3]) it was 0.1 rel. units; in assay [1] (setting [4]), 0.13 rel. units; in assay [1] (setting [5]), 0.13 rel. units; in assay [1] (S1 + ATP, Actin + Tpm + Tn, + Ca2+, parent: est. 0.18) it was 0.28 rel. units; in assay [1] (setting [6]), 0.35 rel. units. In addition, in assay [1] (setting [7]), the other: N (relative number of disordered fluorophores) was determined as 0.15 rel. units.
